# Laboratory results published in article PMC7373317, “Structural basis of human full-length kindlin-3 homotrimer in an auto-inhibited state” (PLoS Biology, 2020).
# T1: human full-length kindlin-2, from Sf9 insect cells (monomer) (human), Q96AC1
# T1 chain: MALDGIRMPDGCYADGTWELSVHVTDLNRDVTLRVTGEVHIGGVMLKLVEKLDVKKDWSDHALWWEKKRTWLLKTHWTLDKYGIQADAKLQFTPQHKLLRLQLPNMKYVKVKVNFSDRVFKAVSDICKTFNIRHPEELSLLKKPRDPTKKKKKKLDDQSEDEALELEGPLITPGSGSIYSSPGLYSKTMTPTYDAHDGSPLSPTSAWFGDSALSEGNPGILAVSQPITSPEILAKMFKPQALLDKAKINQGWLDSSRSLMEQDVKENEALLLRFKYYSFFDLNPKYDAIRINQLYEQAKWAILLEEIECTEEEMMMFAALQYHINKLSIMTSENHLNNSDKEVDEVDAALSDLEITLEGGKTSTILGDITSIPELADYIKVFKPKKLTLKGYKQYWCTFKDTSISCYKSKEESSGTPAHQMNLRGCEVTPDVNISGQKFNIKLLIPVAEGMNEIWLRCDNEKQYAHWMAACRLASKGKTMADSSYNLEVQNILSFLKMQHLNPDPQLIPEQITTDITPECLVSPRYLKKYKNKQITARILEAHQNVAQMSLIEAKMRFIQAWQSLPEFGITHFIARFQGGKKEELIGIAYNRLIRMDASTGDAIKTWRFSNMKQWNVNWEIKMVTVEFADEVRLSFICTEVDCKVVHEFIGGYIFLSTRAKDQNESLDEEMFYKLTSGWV
# Experiments:
# [1] = biological target: T1, human full-length kindlin-2, from Sf9 …; assay: SEC; analytical gel filtration, Superdex 200 Increase 10/300 GL, 20 mM Tris-HCl pH 7.5, 150 mM NaCl, calibrated with HMW kit; settings: remark: other sources report otherwise
# [2] = biological target: T1, human full-length kindlin-2, from Sf9 …; assay: SEC-MALS; Superdex 200 increase 5/150 GL, 20 mM HEPES pH 7.5, 500 mM NaCl, at least 2 mg/mL; settings: remark: other sources report otherwise
# [3] = biological target: human full-length kindlin-3, wild type, from Sf9 insect cells (monomer) (human, UniProt Q86UX7 1-667); assay: ITC; MicroCal PEAQ-ITC, 25 °C, 50 mM HEPES pH 7.5, 150 mM NaCl; 500 μM ITGB1 tail injected into 50 μM monomer or trimer kindlin; settings: both partners purified
# Sequence of human full-length kindlin-3, wild type, from Sf9 insect cells (monomer) (Q86UX7 whole entry): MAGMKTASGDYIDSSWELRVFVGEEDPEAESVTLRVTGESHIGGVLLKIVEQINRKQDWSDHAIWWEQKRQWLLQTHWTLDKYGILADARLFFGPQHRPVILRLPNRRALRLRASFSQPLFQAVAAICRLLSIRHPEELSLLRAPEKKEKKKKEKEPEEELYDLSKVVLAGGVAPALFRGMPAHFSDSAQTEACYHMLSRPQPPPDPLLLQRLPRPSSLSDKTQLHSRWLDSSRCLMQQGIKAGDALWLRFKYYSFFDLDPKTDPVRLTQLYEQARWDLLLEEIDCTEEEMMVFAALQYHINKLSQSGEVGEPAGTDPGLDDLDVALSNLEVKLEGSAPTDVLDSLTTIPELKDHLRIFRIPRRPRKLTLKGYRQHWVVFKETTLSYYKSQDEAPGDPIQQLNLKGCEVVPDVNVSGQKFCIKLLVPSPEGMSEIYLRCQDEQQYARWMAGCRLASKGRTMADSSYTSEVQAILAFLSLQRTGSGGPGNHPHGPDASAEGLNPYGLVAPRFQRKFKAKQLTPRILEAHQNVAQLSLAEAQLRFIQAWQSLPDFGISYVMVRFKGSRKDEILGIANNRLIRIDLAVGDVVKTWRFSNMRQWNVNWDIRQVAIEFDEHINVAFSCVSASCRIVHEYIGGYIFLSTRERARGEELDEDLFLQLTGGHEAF
# [4] = biological target: human full-length kindlin-2, from Sf9 insect cells (monomer) (human) (UniProt Q96AC1); assay: as above
Binder,stoichiometry N [1],stoichiometry N [2],Kd [3],Kd [4]
"human full-length kindlin-2, from Sf9 insect cells (monomer), Q96AC1 1-680 (natural protein) MALDGIRMPDGCYADGTWELSVHVTDLNRDVTLRVTGEVHIGGVMLKLVEKLDVKKDWSDHALWWEKKRTWLLKTHWTLDKYGIQADAKLQFTPQHKLLRLQLPNMKYVKVKVNFSDRVFKAVSDICKTFNIRHPEELSLLKKPRDPTKKKKKKLDDQSEDEALELEGPLITPGSGSIYSSPGLYSKTMTPTYDAHDGSPLSPTSAWFGDSALSEGNPGILAVSQPITSPEILAKMFKPQALLDKAKINQGWLDSSRSLMEQDVKENEALLLRFKYYSFFDLNPKYDAIRINQLYEQAKWAILLEEIECTEEEMMMFAALQYHINKLSIMTSENHLNNSDKEVDEVDAALSDLEITLEGGKTSTILGDITSIPELADYIKVFKPKKLTLKGYKQYWCTFKDTSISCYKSKEESSGTPAHQMNLRGCEVTPDVNISGQKFNIKLLIPVAEGMNEIWLRCDNEKQYAHWMAACRLASKGKTMADSSYNLEVQNILSFLKMQHLNPDPQLIPEQITTDITPECLVSPRYLKKYKNKQITARILEAHQNVAQMSLIEAKMRFIQAWQSLPEFGITHFIARFQGGKKEELIGIAYNRLIRMDASTGDAIKTWRFSNMKQWNVNWEIKMVTVEFADEVRLSFICTEVDCKVVHEFIGGYIFLSTRAKDQNESLDEEMFYKLTSGWV",3,3,,
"AKWDTGENPIYKSAVTTVVNPKYEGK (domain or fragment, UniProt P05556-1 773-798, looked up, integrin beta-1, human, cytoplasmic tail residues 773-798; pNH-TrxT, N-terminal cleavable 6xHis thioredoxin tag; no cleavage step is described and the ITC control was the His-Trx tag alone, so the tag was probably kept (surmise); also called ITGB1 tail; integrin β1 tail) [human integrin β1 cytoplasmic tail (ITGB1 residues 773–798)]",,,~200 µM,13.4 µM
